# From patent US20250277046A1 (JULIUS MAXIMILIANS UNIVERSIT T W RZBURG, published 2025)
# T1: Fibroblast growth factor (FGF)-inducible 14 (Fn14) (UniProt Q9NP84 28-129, limits assumed)
# T1 sequence (looked up): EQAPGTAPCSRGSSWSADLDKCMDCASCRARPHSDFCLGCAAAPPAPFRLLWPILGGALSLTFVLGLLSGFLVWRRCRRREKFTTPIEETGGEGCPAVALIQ
# Molecular target: T1, Fibroblast growth factor …
# Test: cell-based or functional assay
"p100 processing (western blot), starting concentration [ng/mL]",Binder,"enhancement of TNF-induced toxicity (HeLa-RIPK3-FADDKO cells, 1 ng/ml TNF), ED50 [µg/mL]"
~200,18D1-(5) (antibody) heavy: not shown light: QLDYKDDDDKEFEVQLVESGGGLVQPGGSLRLSCAASGFTFSNYWMSWVRQAPGKGLEWVSGINPGGTSTYYADSVKGRFTISRDNAKNTLYLQMNSLKSEDTAVYYCAKHLGNWGEYNYWGQGTQVTVSSRSSTKGPKLEEGEFSEAQLQSALTQPPSVSGSPGKTVTISCAGTGGDVGYRNSVSWYQQLPGMAPKLLIYDVDKRASGITDRFSGSKSGDTASLTISGVQSEDEADYYCASQRSGIAAVFGGGTHLTVLGGSEIKRTVAAPSVFIFPPSDEQLKSGTASVVCLLNNFYPREAKVQWKVDNALQSGNSQESVTEQDSKDSTYSLSSTLTLSKADYEKHKVYACEVTHQGLSSPVTKSFNRGEC,< 0.1
~200,18D1-(6) (antibody) heavy: not shown light: QLDYKDDDDKEFEVQLVESGGGLVQPGGSLRLSCAASGFTFSNYWMSWVRQAPGKGLEWVSGINPGGTSTYYADSVKGRFTISRDNAKNTLYLQMNSLKSEDTAVYYCAKHLGNWGEYNYWGQGTQVTVSSRSSTKGPKLEEGEFSEAQLQSALTQPPSVSGSPGKTVTISCAGTGGDVGYRNSVSWYQQLPGMAPKLLIYDVDKRASGITDRFSGSKSGDTASLTISGVQSEDEADYYCASQRSGIAAVFGGGTHLTVLGGSEIKRTVAAPSVFIFPPSDEQLKSGTASVVCLLNNFYPREAKVQWKVDNALQSGNSQESVTEQDSKDSTYSLSSTLTLSKADYEKHKVYACEVTHQGLSSPVTKSFNRGEC,< 0.1
~20,18D1-(2) (antibody) heavy: not shown light: QLDYKDDDDKEFQSALTQPPSVSGSPGKTVTISCAGTGGDVGYRNSVSWYQQLPGMAPKLLIYDVDKRASGITDRFSGSKSGDTASLTISGVQSEDEADYYCASQRSGIAAVFGGGTHLTVLGGSEIKRTVAAPSVFIFPPSDEQLKSGTASVVCLLNNFYPREAKVQWKVDNALQSGNSQESVTEQDSKDSTYSLSSTLTLSKADYEKHKVYACEVTHQGLSSPVTKSFNRGEC,< 0.1
~20,18D1-(3) (antibody) heavy: not shown light: QLDYKDDDDKEFQSALTQPPSVSGSPGKTVTISCAGTGGDVGYRNSVSWYQQLPGMAPKLLIYDVDKRASGITDRFSGSKSGDTASLTISGVQSEDEADYYCASQRSGIAAVFGGGTHLTVLGGSEIKRTVAAPSVFIFPPSDEQLKSGTASVVCLLNNFYPREAKVQWKVDNALQSGNSQESVTEQDSKDSTYSLSSTLTLSKADYEKHKVYACEVTHQGLSSPVTKSFNRGECLEEVQLVESGGGLVQPGGSLRLSCAASGFTFSNYWMSWVRQAPGKGLEWVSGINPGGTSTYYADSVKGRFTISRDNAKNTLYLQMNSLKSEDTAVYYCAKHLGNWGEYNYWGQGTQVTVSSRSSTKGPKLEEGEFSEAQLQSALTQPPSVSGSPGKTVTISCAGTGGDVGYRNSVSWYQQLPGMAPKLLIYDVDKRASGITDRFSGSKSGDTASLTISGVQSEDEADYYCASQRSGIAAVFGGGTHLTVLG,< 0.1
~20,18D1-(4) (antibody) heavy: not shown light: QLDYKDDDDKEFQSALTQPPSVSGSPGKTVTISCAGTGGDVGYRNSVSWYQQLPGMAPKLLIYDVDKRASGITDRFSGSKSGDTASLTISGVQSEDEADYYCASQRSGIAAVFGGGTHLTVLGGSEIKRTVAAPSVFIFPPSDEQLKSGTASVVCLLNNFYPREAKVQWKVDNALQSGNSQESVTEQDSKDSTYSLSSTLTLSKADYEKHKVYACEVTHQGLSSPVTKSFNRGECLEEVQLVESGGGLVQPGGSLRLSCAASGFTFSNYWMSWVRQAPGKGLEWVSGINPGGTSTYYADSVKGRFTISRDNAKNTLYLQMNSLKSEDTAVYYCAKHLGNWGEYNYWGQGTQVTVSSRSSTKGPKLEEGEFSEAQLQSALTQPPSVSGSPGKTVTISCAGTGGDVGYRNSVSWYQQLPGMAPKLLIYDVDKRASGITDRFSGSKSGDTASLTISGVQSEDEADYYCASQRSGIAAVFGGGTHLTVLG,< 0.1
~200,18D1-(7) (antibody) heavy: not shown light: QLDYKDDDDKEFEVQLVESGGGLVQPGGSLRLSCAASGFTFSNYWMSWVRQAPGKGLEWVSGINPGGTSTYYADSVKGRFTISRDNAKNTLYLQMNSLKSEDTAVYYCAKHLGNWGEYNYWGQGTQVTVSSRSSTKGPKLEEGEFSEAQLQSALTQPPSVSGSPGKTVTISCAGTGGDVGYRNSVSWYQQLPGMAPKLLIYDVDKRASGITDRFSGSKSGDTASLTISGVQSEDEADYYCASQRSGIAAVFGGGTHLTVLGGSEIKRTVAAPSVFIFPPSDEQLKSGTASVVCLLNNFYPREAKVQWKVDNALQSGNSQESVTEQDSKDSTYSLSSTLTLSKADYEKHKVYACEVTHQGLSSPVTKSFNRGECLEEVQLVESGGGLVQPGGSLRLSCAASGFTFSNYWMSWVRQAPGKGLEWVSGINPGGTSTYYADSVKGRFTISRDNAKNTLYLQMNSLKSEDTAVYYCAKHLGNWGEYNYWGQGTQVTVSSRSSTKGPKLEEGEFSEAQLQSALTQPPSVSGSPGKTVTISCAGTGGDVGYRNSVSWYQQLPGMAPKLLIYDVDKRASGITDRFSGSKSGDTASLTISGVQSEDEADYYCASQRSGIAAVFGGGTHLTVLG,< 0.1
~200,18D1-(8) (antibody) heavy: not shown light: QLDYKDDDDKEFEVQLVESGGGLVQPGGSLRLSCAASGFTFSNYWMSWVRQAPGKGLEWVSGINPGGTSTYYADSVKGRFTISRDNAKNTLYLQMNSLKSEDTAVYYCAKHLGNWGEYNYWGQGTQVTVSSRSSTKGPKLEEGEFSEAQLQSALTQPPSVSGSPGKTVTISCAGTGGDVGYRNSVSWYQQLPGMAPKLLIYDVDKRASGITDRFSGSKSGDTASLTISGVQSEDEADYYCASQRSGIAAVFGGGTHLTVLGGSEIKRTVAAPSVFIFPPSDEQLKSGTASVVCLLNNFYPREAKVQWKVDNALQSGNSQESVTEQDSKDSTYSLSSTLTLSKADYEKHKVYACEVTHQGLSSPVTKSFNRGECLEEVQLVESGGGLVQPGGSLRLSCAASGFTFSNYWMSWVRQAPGKGLEWVSGINPGGTSTYYADSVKGRFTISRDNAKNTLYLQMNSLKSEDTAVYYCAKHLGNWGEYNYWGQGTQVTVSSRSSTKGPKLEEGEFSEAQLQSALTQPPSVSGSPGKTVTISCAGTGGDVGYRNSVSWYQQLPGMAPKLLIYDVDKRASGITDRFSGSKSGDTASLTISGVQSEDEADYYCASQRSGIAAVFGGGTHLTVLG,< 0.1
